Ends that are not written are not given here. NH2‑PEG4 = N-terminal amino-PEG4 group (N-terminal PEGylation)
Columns and labels:
[1] = molecular target: human IgG (human); assay: SPR, synthetic peptide
[2] = molecular target: human IgG (human); assay: SPR, synthetic peptide on human IgG
[3] = molecular target: human IgG (human); assay: affinity column with 1.2 µmol immobilized peptide, 1 mL human serum applied, elution at pH 2.5, absorbance
[4] = molecular target: human IgG (human); assay: SPR sensorgram analysis

Row | Binder | Kd [1] [µM] | further results
1 | GPRCAYHRGELVWCSFH [C35A (D3R, T15S)] | 0.042 | ratio of Kd against C35A-3/15 (D3R, T15S) [1]: 0.333 fold
2 | GPSCAYHRGELVWCTFH [C35A (D3S)] | – | Kd [2]: 0.0285 µM
3 | GPDCTYTNGNLVWCTFH (not fully specified (bridges); cysteine pairing not given here) [GFc-C35] | 14 | –
4 | SPDCAYHRGELVWCTFH [C35A (G1S)] | – | Kd [2]: 0.0093 µM
5 | SPDCAYHRGELVWCTFY [C35A (G1S, H17Y)] | – | Kd [2]: 0.011 µM
6 | DCTYHRGNLIWCT [GFc-C35-3/15 (T7H, N8R, V12I)] | 4.8 | –
7 | DCSYTNGNLVWCT [GFc-C35-3/15 (T5S)] | 120 | –
8 | {NH2‑PEG4}-DCAYHRGELVWCT-NH2 (not fully specified (bridges); printed as NH2-PEG4-DCAYHRGELVWCT-NH2; cysteine pairing not given here; also: coupled through PEG4 amine to HiTrap NHS-activated HP column) [N-terminally PEGylated C35A-3/15 (NH2-PEG4-…-NH2)] | – | protein yield of the eluted fraction D [3]: 10.4 mg
9 | DCTYHNGNLVWCT [GFc-C35-3/15 (T7H)] | 3 | fold increase of affinity against GFc-C35-3/15 [1]: 50 fold
10 | DCTYSNGNLVWCT [GFc-C35-3/15 (T7S)] | 26 | –
11 | DCAYTNGNLVWCT [GFc-C35-3/15 (T5A)] | 61 | –
12 | GPDCAYHRGELVWCTHH [C35A (F16H)] | – | Kd [2]: 0.0114 µM
13 | PDCTYTNGNLVWCTF [GFc-C35-2/16] | 25 | –
14 | GPDCAYHRGELVWCSFH [C35A (T15S)] | – | Kd [2]: 0.0144 µM
15 | DCTYTNGELVWCT [GFc-C35-3/15 (N10E)] | 26 | –
16 | DCTYTNGRLVWCT [GFc-C35-3/15 (N10R)] | 42 | –
17 | GDDCAYHRGELVWCTFH [C35A (P2D)] | – | Kd [2]: 0.0133 µM
18 | DCTWHRGNLVWCT [GFc-C35-3/15 (T7H, N8R, Y6W)] | 2 | –
19 | DCTYHRGELVWCT [GFc-C35-3/15 (T7H, N8R, N10E)] | 0.27 | –
20 | DCTYTNGNLIWCT [GFc-C35-3/15 (V12I)] | 12 | ratio of Kd against GFc-C35-3/15 [1]: 0.1 fold

Row | Binder | Kd [1] [µM] | further results
21 | SDDCAYHRGELVWCTFY (not fully specified; cysteine pairing not given here) [C35A (P2D, H17Y)] | – | Kd [2]: 0.013 µM
22 | DCTYRNGNLVWCT [GFc-C35-3/15 (T7R)] | 83 | –
23 | DCTYTNGDLVWCT [GFc-C35-3/15 (N10D)] | 80 | –
24 | DCTYHRGNLVWCT [GFc-C35-3/15 (T7H, N8R)] | 1.1 | –
25 | DCTYTRGNLVWCT [GFc-C35-3/15 (N8R)] | 8 | fold decrease of Kd against GFc-C35-3/15 [1]: 18 fold
26 | DCAWHRGELVWCT [GFc-C35-3/15 (T5A, Y6W, T7H, N8R, N10E)] | 0.26 | Kd [4]: 0.257 µM; koff [4]: 0.014 s⁻¹; kon [4]: 54000 M⁻¹ s⁻¹; ratio of ka against GFc-C35-3/15 (T5A, T7H, N8R, N10E) [4]: < 0.125 fold; ratio of kd against GFc-C35-3/15 (T5A, T7H, N8R, N10E) [4]: 0.5 fold
27 | GPDCAYHRGELVWCTFY [C35A (H17Y)] | – | Kd [2]: 0.012 µM
28 | DCTYTNGQLVWCT [GFc-C35-3/15 (N10Q)] | 160 | –
29 | GPDCAYHRGELVWCTFH [C35A] | 0.009 | ratio of Kd against C35A-3/15 [1]: 0.2 fold
30 | DCTYTNGNLVWCT [GFc-C35-3/15] | 130 | –
31 | DCAYHRGNLVWCT [GFc-C35-3/15 (T7H, N8R, T5A)] | 0.25 | –
32 | DCTWTNGNLVWCT [GFc-C35-3/15 (Y6W)] | 50 | –
33 | DCTYTNGNMVWCT [GFc-C35-3/15 (L11M)] | 280 | ratio of Kd against GFc-C35-3/15 [1]: 2 fold
34 | RCAYHRGELVWCS [GFc-C35-3/15 (D3R, T5A, T7H, N8R, N10E, T15S)] | 0.147 | –
35 | DCTFTNGNLVWCT [GFc-C35-3/15 (Y6F)] | 2100 | –
36 | RCTYTNGNLVWCT [GFc-C35-3/15 (D3R)] | 69 | –
37 | DCTYTNGNLVWCS [GFc-C35-3/15 (T15S)] | 34 | ratio of Kd against GFc-C35-3/15 [1]: 0.25 fold
38 | DCAYHRGELVWCT (not fully specified (bridges); cysteine pairing not given here) [GFc-C35-3/15 (T5A, T7H, N8R, N10E)] | 0.054 | fold higher affinity than GFc-C35-3/15 [1]: 2400 fold; koff [4]: 0.025 s⁻¹; kon [4]: 460000 M⁻¹ s⁻¹; ratio of Kd against GFc-C35-3/15 [4]: 0.0417 fold
39 | DCTYTLGNLVWCT [GFc-C35-3/15 (N8L)] | 260 | –

Reference: patent publication US20140274790A1
